In paper PMC6161613 one finds EC50 and percent lower CaM signal intensity than WT data, which are given here for three substances.

The target in assay [1] is Dansyl-calmodulin (rat) (UniProt P0DP29). The assay is described as follows: other fluorescence titration; D-CaM (12.5 nM) fluorescence enhancement on adding increasing concentrations of GST-fusion protein; absence of Ca2+ (10 mM EGTA added); Hill fit; apparent binding affinity (EC50).
Assay [2] has the same target. The assay is described as follows: other fluorescence titration; D-CaM (12.5 nM) fluorescence enhancement on adding increasing concentrations of GST-fusion protein; 3.9 μM free Ca2+; Hill fit; apparent binding affinity (EC50).
In assay [3] the target is GST-Kv7.2 helices A-B fusion protein (G310-L548) K526N (human). The assay can be described thus: pull-down; purified GST fusion proteins immobilised on GSH-Sepharose 4B beads; CaM (10 μg) added, 45 min, room temperature; 25 mM Hepes, 120 mM KCl, 5 mM NaCl, pH 7.5 with 100 μM CaCl2; anti-CaM Western blot, band intensities quantified (n = 3).

Regarding “GST-Kv7.2 helices A-B fusion protein (G310-L548) R333Q (domain or fragment)”, the EC50 with Dansyl-calmodulin (rat) [1] was 12.6 nM; in the assay with Dansyl-calmodulin (rat) [2] it was 30.1 nM.

In assay [3], “Recombinant rat brain calmodulin (from UniProt P0DP29 1-149) (natural protein)” returned a percent lower CaM signal intensity than WT of 42%.

As for “GST-Kv7.2 helices A-B fusion protein (G310-L548) K526N (domain or fragment)”, the 50% effective concentration (EC50) came to 37.3 nM in the assay with Dansyl-calmodulin (rat) [1] and 55.9 nM in the assay with Dansyl-calmodulin (rat) [2].
